Blank lines part the entries; values can stand above or below the substance they belong to.
Key:
[1] = target: tumor necrosis factor alpha (TNF-α), R&D Systems 210-TA-005 (UniProt P01375); assay: c-PLA 10X probes, human plasma; TNF-α 1.00E-13 M
[2] = target: tumor necrosis factor alpha (TNF-α), R&D Systems 210-TA-005 (UniProt P01375); assay: c-PLA 10X probes, human plasma; TNF-α 5.00E-07 M
[3] = target: tumor necrosis factor alpha (TNF-α), R&D Systems 210-TA-005 (UniProt P01375); assay: t-PLA 1X probes, buffer; TNF-α 1.00E-11 M
[4] = target: tumor necrosis factor alpha (TNF-α), R&D Systems 210-TA-005 (UniProt P01375); assay: t-PLA 10X probes, buffer; TNF-α 1.00E-11 M
[5] = target: tumor necrosis factor alpha (TNF-α), R&D Systems 210-TA-005 (UniProt P01375); assay: t-PLA 1X probes, human plasma; TNF-α 1.00E-10 M
[6] = target: tumor necrosis factor alpha (TNF-α), R&D Systems 210-TA-005 (UniProt P01375); assay: t-PLA 10X probes, human plasma; TNF-α 1.00E-13 M
[7] = target: tumor necrosis factor alpha (TNF-α), R&D Systems 210-TA-005 (UniProt P01375); assay: c-PLA 1X probes, buffer; TNF-α 5.00E-07 M
[8] = target: tumor necrosis factor alpha (TNF-α), R&D Systems 210-TA-005 (UniProt P01375); assay: t-PLA, buffer; TNF-α 1.00E-11 M
[9] = target: tumor necrosis factor alpha (TNF-α), R&D Systems 210-TA-005 (UniProt P01375); assay: c-PLA, buffer; TNF-α 1.00E-08 M
[10] = target: tumor necrosis factor alpha (TNF-α), R&D Systems 210-TA-005 (UniProt P01375); assay: c-PLA 10X probes, buffer; TNF-α 5.00E-07 M
[11] = target: tumor necrosis factor alpha (TNF-α), R&D Systems 210-TA-005 (UniProt P01375); assay: c-PLA, buffer; TNF-α 5.00E-07 M
[12] = target: tumor necrosis factor alpha (TNF-α), R&D Systems 210-TA-005 (UniProt P01375); assay: t-PLA 10X probes, buffer; TNF-α 1.00E-09 M
[13] = target: tumor necrosis factor alpha (TNF-α), R&D Systems 210-TA-005 (UniProt P01375); assay: t-PLA 1X probes, human plasma; TNF-α 1.00E-08 M
[14] = target: tumor necrosis factor alpha (TNF-α), R&D Systems 210-TA-005 (UniProt P01375); assay: t-PLA 1X probes, buffer; TNF-α 5.00E-07 M
[15] = target: tumor necrosis factor alpha (TNF-α), R&D Systems 210-TA-005 (UniProt P01375); assay: c-PLA, buffer; TNF-α 1.00E-10 M
[16] = target: tumor necrosis factor alpha (TNF-α), R&D Systems 210-TA-005 (UniProt P01375); assay: c-PLA 1X probes, human plasma; TNF-α 5.00E-07 M
[17] = target: tumor necrosis factor alpha (TNF-α), R&D Systems 210-TA-005 (UniProt P01375); assay: BLI (Octet RED), antibody on protein G sensors, 1:1 global fit
[18] = target: tumor necrosis factor alpha (TNF-α), R&D Systems 210-TA-005 (UniProt P01375); assay: c-PLA 1X probes, human plasma; TNF-α 1.00E-13 M
[19] = target: vascular endothelial growth factor (VEGF), R&D Systems 293-VE-010 (human) (UniProt P15692); assay: t-PLA with preamplification; VEGF 1.00E-09 M
[20] = target: vascular endothelial growth factor (VEGF), R&D Systems 293-VE-010 (human) (UniProt P15692); assay: c-PLA with preamplification; VEGF 1.00E-11 M
[21] = target: vascular endothelial growth factor (VEGF), R&D Systems 293-VE-010 (human) (UniProt P15692); assay: c-PLA with preamplification; VEGF 1.00E-12 M
[22] = target: vascular endothelial growth factor (VEGF), R&D Systems 293-VE-010 (human) (UniProt P15692); assay: t-PLA, buffer; VEGF 1.00E-08 M
[23] = target: vascular endothelial growth factor (VEGF), R&D Systems 293-VE-010 (human) (UniProt P15692); assay: t-PLA, buffer; VEGF 1.00E-14 M
[24] = target: vascular endothelial growth factor (VEGF), R&D Systems 293-VE-010 (human) (UniProt P15692); assay: c-PLA with preamplification; VEGF 1.00E-10 M
[25] = target: vascular endothelial growth factor (VEGF), R&D Systems 293-VE-010 (human) (UniProt P15692); assay: t-PLA, human plasma; VEGF 1.00E-11 M
[26] = target: vascular endothelial growth factor (VEGF), R&D Systems 293-VE-010 (human) (UniProt P15692); assay: c-PLA with preamplification; VEGF 1.00E-09 M
[27] = target: vascular endothelial growth factor (VEGF), R&D Systems 293-VE-010 (human) (UniProt P15692); assay: c-PLA, chicken plasma; VEGF 1.00E-14 M
[28] = target: vascular endothelial growth factor (VEGF), R&D Systems 293-VE-010 (human) (UniProt P15692); assay: BLI (Octet RED), antibody on protein G sensors, 1:1 global fit

UniProt P15692, sequence (P15692 other isoform, or with tags, fused parts or gaps limits assumed): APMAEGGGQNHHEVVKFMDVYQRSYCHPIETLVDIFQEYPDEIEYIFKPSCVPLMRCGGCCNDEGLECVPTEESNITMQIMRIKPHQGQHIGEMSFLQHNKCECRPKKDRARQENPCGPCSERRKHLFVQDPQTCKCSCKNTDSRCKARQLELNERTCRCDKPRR
UniProt P01375, sequence (P01375 77-233 limits assumed): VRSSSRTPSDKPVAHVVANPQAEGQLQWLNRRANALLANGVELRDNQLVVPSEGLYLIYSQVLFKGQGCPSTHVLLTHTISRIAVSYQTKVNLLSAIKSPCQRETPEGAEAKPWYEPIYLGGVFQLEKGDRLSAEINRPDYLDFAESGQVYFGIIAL

Substance: affinity-purified polyclonal anti-TNF-α antibody (R&D Systems AF-210-NA)
Counts [1]: 2030 | Counts [2]: 495000 | SBR [2]: 230 | Counts [3]: 443000 | Counts [4]: 7.03e+06 | SBR [4]: 1.2 | Counts [5]: 1.56e+06 | SBR [5]: 6.6 | Counts [6]: 1.36e+07 | SBR [6]: 1.2 | Counts [7]: 33000 | SBR [7]: 2070 | Counts [8]: 443000 | SBR [8]: 2.6 | Counts [9]: 11600 | SBR [9]: 1030 | Counts [10]: 650000 | SBR [10]: 3550 | Counts [11]: 33000 | SBR [11]: 2930 | Counts [12]: 3.2e+08 | SBR [12]: 56 | Counts [13]: 1.79e+07 | SBR [13]: 75 | Counts [14]: 1.33e+08 | Counts [15]: 260 | Counts [16]: 28800 | SBR [16]: 383 | Kd [17]: 6.43 nM | Counts [18]: 83.7 | SBR [18]: 1.1

Counts [19]: 1.19e+09 | SBR [19]: 6740 | Counts [20]: 4.88e+06 | SBR [20]: 82 | Counts [21]: 516000 | SBR [21]: 8.7 | Counts [22]: 2.5e+09 | SBR [22]: 7230 | Counts [23]: 595000 | SBR [23]: 1.7 | Counts [24]: 6.02e+07 | SBR [24]: 1010 | Counts [25]: 7.15e+06 | Counts [26]: 2.36e+08 | SBR [26]: 3970 | Counts [27]: 10.7 | SBR [27]: 1.2 | Kd [28]: 0.057 nM
Substance: affinity-purified polyclonal anti-VEGF antibody (R&D Systems AF-293-NA)

— US20190360025A1
